Patent US20240016928A1 (SCHOLAR ROCK, published 2024)

How the values were obtained:
[1] = target: T1, latent TGFβ2 (Chlorocebus aethiops (Green monkey) …, UniProt P61811 20-414); assay: Octet (bio-layer interferometry)
T1 sequence: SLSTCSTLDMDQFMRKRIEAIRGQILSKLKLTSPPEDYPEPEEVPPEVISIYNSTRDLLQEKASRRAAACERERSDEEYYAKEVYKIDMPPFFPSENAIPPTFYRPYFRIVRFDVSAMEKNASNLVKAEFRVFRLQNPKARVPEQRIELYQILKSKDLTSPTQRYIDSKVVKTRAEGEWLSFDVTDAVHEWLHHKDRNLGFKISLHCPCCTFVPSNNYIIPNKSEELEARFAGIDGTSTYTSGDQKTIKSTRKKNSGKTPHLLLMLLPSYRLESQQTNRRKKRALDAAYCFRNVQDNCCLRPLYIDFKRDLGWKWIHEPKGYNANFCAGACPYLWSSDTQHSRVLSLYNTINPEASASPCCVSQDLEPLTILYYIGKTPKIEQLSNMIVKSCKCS

[2] = target: T2, latent TGFβ3 (Homo sapiens (Human), UniProt P10600 21-412, limits assumed); assay: Octet (bio-layer interferometry)
T2 sequence: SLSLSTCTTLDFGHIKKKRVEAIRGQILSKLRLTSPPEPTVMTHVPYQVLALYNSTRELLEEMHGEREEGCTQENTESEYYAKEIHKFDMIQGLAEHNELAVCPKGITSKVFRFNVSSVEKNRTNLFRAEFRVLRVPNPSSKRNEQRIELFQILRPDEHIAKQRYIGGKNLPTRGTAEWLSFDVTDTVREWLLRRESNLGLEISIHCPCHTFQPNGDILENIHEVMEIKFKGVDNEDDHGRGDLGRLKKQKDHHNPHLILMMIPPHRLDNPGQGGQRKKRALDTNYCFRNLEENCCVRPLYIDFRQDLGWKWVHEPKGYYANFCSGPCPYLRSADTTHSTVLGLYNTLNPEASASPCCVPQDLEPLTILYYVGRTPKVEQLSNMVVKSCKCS

binding result [1]: no binding | binding result [2]: no binding
B1: Ab3 (antibody, V domains shown)
VH: EVQLLESGGGLVQPGGSLRLSCAASGFTFRNYAMSWVRQAPGKGLEWVSSISGSGGATYYADSVKGRFTISRDNSKNTLYLQMNSLRAEDTAVYYCARVSSGHWDFDYWGQGTLVTVSS
VL: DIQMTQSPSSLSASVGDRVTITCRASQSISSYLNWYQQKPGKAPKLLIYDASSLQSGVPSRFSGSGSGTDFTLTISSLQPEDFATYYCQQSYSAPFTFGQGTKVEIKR
notes: described as a fully human monoclonal antibody; Ab3-mIgG1 was used in vivo
